Assay results published in paper doi:10.1101/2023.05.01.538945.

What was measured:
[1] = target: Bacillus cereus VD045 GajB (Gabija protein B), untagged, co-expressed with GajA (Bacillus cereus VD045) (UniProt J8HQ06); test: crystal structure
[2] = target: SUMO2-tagged Bacillus cereus VD045 GajAB complex (Bacillus cereus VD045) (UniProt J8H9C1); test: cryo-EM structure
[3] = target: Bacillus phage Phi3T Gabija anti-defense 1 (Gad1) (Bacillus phage Phi3T); test: cryo-EM structure

Chain of Bacillus phage Phi3T Gabija anti-defense 1 (Gad1) (natural protein) (A0A1P8CWZ3 whole entry): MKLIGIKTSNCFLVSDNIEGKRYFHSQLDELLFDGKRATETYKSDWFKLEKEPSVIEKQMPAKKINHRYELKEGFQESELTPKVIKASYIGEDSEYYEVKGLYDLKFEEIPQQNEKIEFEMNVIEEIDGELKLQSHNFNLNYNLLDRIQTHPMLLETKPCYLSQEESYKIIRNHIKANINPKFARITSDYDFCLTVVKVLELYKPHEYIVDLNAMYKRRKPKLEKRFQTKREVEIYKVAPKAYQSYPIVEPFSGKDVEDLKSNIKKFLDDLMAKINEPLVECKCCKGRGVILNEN
Chain of SUMO2-tagged Bacillus cereus VD045 GajAB complex (Bacillus cereus VD045) (J8H9C1 2-578, chain 1 of 2): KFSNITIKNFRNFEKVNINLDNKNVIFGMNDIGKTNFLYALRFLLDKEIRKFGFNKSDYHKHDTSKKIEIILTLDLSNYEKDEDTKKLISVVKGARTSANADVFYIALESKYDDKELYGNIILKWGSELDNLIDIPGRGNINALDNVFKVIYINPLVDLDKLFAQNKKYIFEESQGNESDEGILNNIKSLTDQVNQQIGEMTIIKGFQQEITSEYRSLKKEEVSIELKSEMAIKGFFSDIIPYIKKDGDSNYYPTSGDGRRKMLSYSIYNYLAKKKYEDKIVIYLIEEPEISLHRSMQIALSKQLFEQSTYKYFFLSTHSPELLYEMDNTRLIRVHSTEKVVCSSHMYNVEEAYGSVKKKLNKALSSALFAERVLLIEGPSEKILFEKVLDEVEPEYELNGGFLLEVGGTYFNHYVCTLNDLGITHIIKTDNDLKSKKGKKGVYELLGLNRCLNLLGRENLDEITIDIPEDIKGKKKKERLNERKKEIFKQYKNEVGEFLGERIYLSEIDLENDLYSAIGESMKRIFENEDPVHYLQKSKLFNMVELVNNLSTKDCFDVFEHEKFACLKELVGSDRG
Chain of SUMO2-tagged Bacillus cereus VD045 GajAB complex (Bacillus cereus VD045) (J8HQ06 2-494, chain 2 of 2, further chain): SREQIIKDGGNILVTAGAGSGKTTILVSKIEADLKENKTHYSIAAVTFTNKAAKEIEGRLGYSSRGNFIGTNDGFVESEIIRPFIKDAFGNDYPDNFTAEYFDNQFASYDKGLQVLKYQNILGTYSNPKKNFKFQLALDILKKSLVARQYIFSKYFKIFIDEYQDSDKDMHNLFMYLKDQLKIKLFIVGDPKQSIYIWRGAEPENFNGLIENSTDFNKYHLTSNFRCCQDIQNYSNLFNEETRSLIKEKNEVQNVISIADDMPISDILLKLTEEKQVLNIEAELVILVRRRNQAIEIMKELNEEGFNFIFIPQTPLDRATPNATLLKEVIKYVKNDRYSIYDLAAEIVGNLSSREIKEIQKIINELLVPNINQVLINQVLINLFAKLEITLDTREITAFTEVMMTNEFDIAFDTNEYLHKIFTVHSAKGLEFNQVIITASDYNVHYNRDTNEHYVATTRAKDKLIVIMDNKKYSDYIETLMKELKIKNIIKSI

Bacillus cereus VD045 GajB (Gabija protein B), untagged, co-expressed with GajA (from UniProt J8HQ06 2-494) (enzyme)
stoichiometry N [1]: 2

Bacillus phage Phi3T Gabija anti-defense 1 (Gad1) (natural protein)
stoichiometry N (Gad1 per 4:4 GajAB assembly) [2]: 8
stoichiometry N [3]: 8
